Assays:
[1] = Stability study of FIB One aqueous formulation (HPLC); assay type: physicochemical; details: for Conc. / pH: aqueous formulation; for Conc. / ∆% / Total imp. RRT(%): HPLC; for ∆%: change of conc.
[2] = test system: MMP activity in ex vivo ventilated ovine lung; assay: Ex vivo ovine lung model instilled with OPA supernatant, FCFM imaging; details: 5 μM FIB One in 1 mL, OPA supernatant-instilled segments, n=3
Protocol: Ovine pulmonary adenocarcinoma (OPA) tissue was homogenised using a drill homogeniser, followed by lysis in cell lysis buffer. The supernatant was collected following centrifugation at 12,000 rpm for 20 min. The samples were adjusted to 1 mg mL^-1 total protein (determined by a Pierce BCA Total Protein Assay Kit (Thermo Fisher Scientific)). Zymography (as described above) was performed to confirm MMP activity across multiple OPA samples. Recombinant MMP-9 (2 nM) and recombinant pro-MMP-9 (0.5 nM) were included in the assay as positive controls. […] Following >30 min, the segments were bronchoscopically identified and microdosed with 5 μM FIB One in 1 mL. FCFM imaging was undertaken pre- and postinstillation (Cellvizio®, Mauna Kea Technologies). This was performed by passing a FCFM fibre into the disparate bronchopulmonary segments (up to 5 passes per bronchopulmonary segment to capture a regional representation of fluorescence), recording images at 12 frames per second and imaging for up to 5 minutes. Videos were analysed as described above. Each experimental set was normalised to the control segment (segment with 1 mL 0.9% NaCl instilled) which represents intrinsic autofluorescence.

Crl:WI(Han) rats = assay: Single intratracheal administration toxicity study of FIB One; assay type: in vivo; details: 100 µg/animal (500 µg/mL)
Protocol: Assessment of toxicity of FIB One was based on clinical signs, body weight, food consumption and clinical and anatomic pathology evaluations. Complete necropsies were performed on all animals with a recording of macroscopic abnormalities for all tissues. Organ weights and microscopic examinations were conducted as indicated.

[3] = fridge 2-8 °C, 1m, 1st of 2 vials
[4] = fridge 2-8 °C, 1m, 2nd of 2 vials
[5] = fridge 2-8 °C, 3m, 1st of 2 vials
[6] = fridge 2-8 °C, 3m, 2nd of 2 vials
[7] = fridge 2-8 °C, 6m, 1st of 2 vials
[8] = fridge 2-8 °C, 6m, 2nd of 2 vials
[9] = fridge 2-8 °C, 9m, 1st of 2 vials
[10] = fridge 2-8 °C, 9m, 2nd of 2 vials
[11] = fridge 2-8 °C, 10m, 1st of 2 vials
[12] = fridge 2-8 °C, 10m, 2nd of 2 vials
[13] = fridge 2-8 °C, 12m, 1st of 2 vials
[14] = fridge 2-8 °C, 12m, 2nd of 2 vials
[15] = fridge 2-8 °C, 21m, 1st of 2 vials
[16] = fridge 2-8 °C, 21m, 2nd of 2 vials
[17] = fridge 2-8 °C, 24m, 1st of 2 vials
[18] = fridge 2-8 °C, 24m, 2nd of 2 vials
[19] = fridge 2-8 °C, 24h, 1st of 2 vials
[20] = fridge 2-8 °C, 24h, 2nd of 2 vials
[21] = fridge 2-8 °C, 14d, 1st of 2 vials
[22] = fridge 2-8 °C, 14d, 2nd of 2 vials

For (Pro-Phe-Gly-Nle-Lys-βAla)3 [FIB One], the “degradation in aqueous formulation of the drug product (HPLC traces)” value ([1]; after 24 months, stored at 2-8°C) was “no degradation”, the Conc. [1, 3] was 80.16 µg per 5mL and the Conc. [1, 4] was 77.20 µg per 5mL. It also gave a Conc. [1, 5] of 78.87 µg per 5mL, a Conc. [1, 6] of 72.63 µg per 5mL and a Conc. [1, 7] of 64.94 µg per 5mL. It also gave a Conc. [1, 8] of 72.74 µg per 5mL, a Conc. [1, 9] of 70.54 µg per 5mL and a Conc. [1, 10] of 66.27 µg per 5mL. For the same substance, the Conc. [1, 11] was 62.55 µg per 5mL, the Conc. [1, 12] was 67.69 µg per 5mL and the pH [1, 13] was 7.5. The pH [1, 14] was 7.5, the Conc. [1, 13] was 60.40 µg per 5mL and the Conc. [1, 14] was 57.67 µg per 5mL. It also gave a pH [1, 15] of 7.5, a pH [1, 16] of 7.5 and a Conc. [1, 15] of 65.38 µg per 5mL. It also gave a Conc. [1, 16] of 59.62 µg per 5mL, a pH [1, 17] of 7.5 and a pH [1, 18] of 7.5. The Conc. [1, 17] was 58.4 µg per 5mL, the Conc. [1, 18] was 58.4 µg per 5mL and the Conc. [1, 19] was 81.63 µg per 5mL. It also gave a Conc. [1, 20] of 82.28 µg per 5mL, a Conc. [1, 21] of 76.85 µg per 5mL and a Conc. [1, 22] of 84.60 µg per 5mL. For the same substance, the pH ([1]; timepoint 0) was 7.5, the “∆%” value [1, 3] was -10.9% and the “∆%” value [1, 4] was -14.2%. For the same substance, the “∆%” value [1, 5] was -12.4%, the “∆%” value [1, 6] was -19.3% and the “∆%” value [1, 7] was -27.8%. The “∆%” value [1, 8] was -19.2%, the “∆%” value [1, 9] was -21.6% and the “∆%” value [1, 10] was -26.4%. For the same substance, the “∆%” value [1, 11] was -30.5%, the “∆%” value [1, 12] was -24.8% and the “∆%” value [1, 13] was -32.9%. For the same substance, the “∆%” value [1, 14] was -35.9%, the “∆%” value [1, 15] was -27.3% and the “∆%” value [1, 16] was -33.8%. The “∆%” value [1, 17] was -35.1%, the “∆%” value [1, 18] was -35.1% and the “∆%” value [1, 19] was -9.3%. The “∆%” value [1, 20] was -8.6%, the “∆%” value [1, 21] was -14.6% and the “∆%” value [1, 22] was -6.1%. The “Total imp. RRT(%)” value [1, 3] was “ND/NQ ND/NQ”, the “Total imp. RRT(%)” value [1, 4] was “ND/NQ ND/NQ” and the “Total imp. RRT(%)” value [1, 5] was “ND/NQ ND/NQ”. The “Total imp. RRT(%)” value [1, 6] was “ND/NQ ND/NQ”, the “Total imp. RRT(%)” value [1, 7] was “ND/NQ ND/NQ” and the “Total imp. RRT(%)” value [1, 8] was “ND/NQ ND/NQ”. For the same substance, the “Total imp. RRT(%)” value [1, 9] was “ND/NQ ND/NQ”, the “Total imp. RRT(%)” value [1, 10] was “ND/NQ ND/NQ” and the “Total imp. RRT(%)” value [1, 11] was “ND/NQ ND/NQ”. The “Total imp. RRT(%)” value [1, 12] was “ND/NQ ND/NQ”, the “Total imp. RRT(%)” value [1, 13] was “ND/NQ ND/NQ” and the “Total imp. RRT(%)” value [1, 14] was “ND/NQ ND/NQ”. For the same substance, the “Total imp. RRT(%)” value [1, 15] was “ND/NQ ND/NQ”, the “Total imp. RRT(%)” value [1, 16] was “ND/NQ ND/NQ” and the “Total imp. RRT(%)” value [1, 17] was “ND/NQ ND/NQ”. For the same substance, the “Total imp. RRT(%)” value [1, 18] was “ND/NQ ND/NQ”, the “Total imp. RRT(%)” value [1, 19] was “ND/NQ ND/NQ” and the “Total imp. RRT(%)” value [1, 20] was “ND/NQ ND/NQ”. For the same substance, the “Total imp. RRT(%)” value [1, 21] was “ND/NQ ND/NQ”, the “Total imp. RRT(%)” value [1, 22] was “ND/NQ ND/NQ” and the “FIB One fluorescence in segments with high MMP activity” value [2] was “diffuse pattern of increased fluorescence”. For the same substance, the “deaths, clinical signs, body weight, food consumption, clinical or anatomic pathology” value (Crl:WI(Han) rats) was “no deaths, no adverse clinical signs and no effects of treatment”.

From publication PMC10530652 (BME Frontiers, 2021)
